From patent US20160053025A1 (SAMSUNG ELECTRONICS, published 2016)

How the values were obtained:
BSA = target: T1, BSA (Bos taurus, UniProt P02769); experiment: Complex ELISA: plate coated with BSA, 10D6 2 ug/ml with or without FLAG-Ang2 0.25 ug/ml, anti-mouse IgG-HRP, OD450
T1 construct: commercial preparation; also called Bovine serum albumin; Sigma
Description: A 96-well MaxiSorp™ flat-bottom plate (Nunc) was coated with 4 μg/ml of Tie2-Fc (R&D systems) or BSA (Sigma). Then, the plate was washed five times with 0.05% (v/v) Tween-20-containing PBS (Phosphate Buffer Saline) and blocked with 1% (v/v) BSA (Bovine serum albumin; Sigma)-containing PBS at a room temperature for 2 hours. 0.25 μg/ml of Ang2 and 2 μg/ml of 10D6 antibody were added to each well of the plate, which was allowed to react at a room temperature for 2 hours and then washed five times with PBST. After that, an anti-mouse IgG antibody (Sigma) conjugated with HRP diluted in 1% (v/v) BSA-containing PBS at a ratio of 1:5,000 (v/v) was added in an amount of 100 ul to each well to react at a room temperature for 1 hour and then, the plate was washed five times with PBST. Lastly, 100 ul (microliter) of TMB substrate (Cell Signaling) was added to each well of the plate to induce color development for 3 min. and then, the reaction was ceased by the addition of 100 ul of Stop solution (Cell Signaling) and OD450 values were measured on a plate reader (Molecular Devices).

[1] = target: T2, Ang2 RBD P452A, FLAG-tagged (human, UniProt O15123 281-496, limits assumed); experiment: ELISA, antibody coated, FLAG-tagged mutant Ang2 RBD detected with anti-FLAG-HRP
T2 chain: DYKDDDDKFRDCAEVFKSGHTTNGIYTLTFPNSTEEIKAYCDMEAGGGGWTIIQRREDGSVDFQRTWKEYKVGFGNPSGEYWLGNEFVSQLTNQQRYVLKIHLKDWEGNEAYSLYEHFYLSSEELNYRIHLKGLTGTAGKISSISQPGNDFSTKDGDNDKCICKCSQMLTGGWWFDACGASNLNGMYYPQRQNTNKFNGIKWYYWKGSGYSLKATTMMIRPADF
Description: To verify the epitope (or specific binding site) of the anti-Ang2 antibody prepared in Reference Example 2.3, an ELISA was performed using a recombinant protein where a receptor binding domain (RBD) of Ang2 protein in the form of being tagged with Flag was mutated by artificial means.
Each well of a 96-well MaxiSorp™ flat-bottom plate (Nunc) was coated with 50 ul (microliter) of 1000 nM antibody. Then, the plate was washed five times with 0.05% (v/v) Tween-20-containing PBS (PBST) and blocked with 1% (v/v) BSA-containing PBS at a room temperature for 2 hours. 250 ng of each mutant Ang2 protein obtained by substituting S417, Q418, P419, N421, 1434, D448, A449, P452, Y460, N467, K468, or F469 residue of Ang2 protein tagged with a FLAG sequence ([…], Sigma) at its N-terminal with alanine was added to each well of the plate, which was then allowed to react at a room temperature for 2 hours.
Finally, 50 ul of TMB substrates (Cell signaling) was added to each well of the plate to induce color development at a room temperature for 3 min. and the reaction was ceased by the addition of 50 ul of Stop solution (Cell signaling) and then, OD450 values were measured on a plate reader (Molecular Devices). By comparing binding affinities with mutated Ang2 to those of unmutated Ang2, each epitope of Ang2 antibodies was identified. The obtained measurement results of the binding affinities (%) with mutant Ang2 against the binding affinity with the native Ang2 are shown in the following Table 13.

[2] = target: T3, recombinant hAng-2 (C-His, R&D Systems) (human, UniProt O15123 19-496); experiment: SPR, BIAcore T100; hAng2 (C-His) captured by anti-His antibody on CM5, antibody as analyte
T3 construct: Bought protein; also called human Ang-2 protein; C-terminal histidine-tagged human Ang2 (R&D Systems); not shown: C-terminal His tag
T3 sequence: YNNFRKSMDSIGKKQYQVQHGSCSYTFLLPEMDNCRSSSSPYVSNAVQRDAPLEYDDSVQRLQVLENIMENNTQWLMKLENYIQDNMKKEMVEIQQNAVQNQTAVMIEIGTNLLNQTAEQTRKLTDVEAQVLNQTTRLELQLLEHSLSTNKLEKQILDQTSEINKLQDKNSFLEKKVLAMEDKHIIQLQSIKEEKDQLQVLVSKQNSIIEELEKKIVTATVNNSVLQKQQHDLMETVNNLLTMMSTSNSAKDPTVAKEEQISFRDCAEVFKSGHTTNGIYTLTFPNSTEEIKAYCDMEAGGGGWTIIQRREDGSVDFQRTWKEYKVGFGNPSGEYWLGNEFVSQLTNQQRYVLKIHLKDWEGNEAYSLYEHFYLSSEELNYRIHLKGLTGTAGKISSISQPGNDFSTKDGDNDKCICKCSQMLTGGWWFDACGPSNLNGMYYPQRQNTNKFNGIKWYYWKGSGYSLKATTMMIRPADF
Description: The binding affinity (KD values) of the antibodies to human Ang2 protein was measured by an SPR method using a BIAcore T100 (GE Healthcare). 25 μg/ml anti-His antibody was immobilized on a CM5 sensor chip (GE healthcare) using a pH 5.0 acetate solution and an amine coupling kit (GE Healthcare). 6 μg/ml of a recombinant hAng2 (C-His, R&D Systems) protein was flowed onto the chip to be captured at 100 to 200 RU levels.

[3] = target: T3, recombinant hAng-2 (C-His, R&D Systems); experiment: SPR, BIAcore T100; hAng-2 (C-His) captured by anti-His antibody on CM5, antibody as analyte
Description: First, anti-His antibody was immobilized on a CM5 sensor chip (GE healthcare) up to 8,000 RU levels using a pH 5.0 acetate solution and an amine coupling kit (GE Healthcare). 6 μg/ml of a recombinant hAng-2 (C-His, R&D Systems) protein was flowed onto the chip to be captured at 100 to 200 RU levels.

T1 sequence (P02769 25-607 limits assumed): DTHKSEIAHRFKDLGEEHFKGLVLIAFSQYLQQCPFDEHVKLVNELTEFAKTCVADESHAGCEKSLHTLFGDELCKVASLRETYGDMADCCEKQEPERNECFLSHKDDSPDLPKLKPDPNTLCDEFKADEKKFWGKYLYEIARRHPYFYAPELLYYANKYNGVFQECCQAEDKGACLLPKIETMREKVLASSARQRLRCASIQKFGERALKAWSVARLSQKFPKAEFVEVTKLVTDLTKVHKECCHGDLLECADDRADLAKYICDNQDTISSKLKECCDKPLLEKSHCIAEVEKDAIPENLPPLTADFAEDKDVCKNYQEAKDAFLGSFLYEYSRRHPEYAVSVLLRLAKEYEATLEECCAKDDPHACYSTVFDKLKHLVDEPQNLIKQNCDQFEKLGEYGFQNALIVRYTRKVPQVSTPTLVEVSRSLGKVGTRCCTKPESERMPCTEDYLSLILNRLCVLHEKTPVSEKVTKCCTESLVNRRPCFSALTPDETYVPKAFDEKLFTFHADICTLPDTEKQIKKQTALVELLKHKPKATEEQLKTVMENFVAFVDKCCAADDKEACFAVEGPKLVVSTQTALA

- binding result (BSA): no binding (tested: 2 ug/ml)
- binding affinity (%) with mutant Ang2 against the binding affinity with the native Ang2 [1]: 102%
- Kd [2]: 8 nM
- koff [2]: 0.000193 s⁻¹
- kon [2]: 24100 M⁻¹ s⁻¹
- Kd [3]: 8 nM
B1: SAIT-ANG2-AB-m10D6 (antibody, V domains shown)
VH: DVQLQESGPDLVKPSQSLSLTCTVTGYSITSDYAWNWIRQFPGNKLEWMGYINYSGNTDYNPSLKSRSSITRDTSKNQFFLQLNSVTTGDTATYYCARGNFEGAMDYWGQGTSVTVSS
VL: SIVMTQTPKFLLVSAGDRVTITCKASQSVSNDVAWYQQKPGQSPKLLIYYASNRYPGVPDRFTGSGYGTDFTFTISTVQAEDLAVYFCQQDYSSPWTFGGGTKLEIK
notes: Mouse monoclonal antibody purified from a hybridoma (KCLRF-BP-00295); it is not applied here; also called mouse antibody 10D6; 10D6 antibody
